Results from publication doi:10.1101/2025.05.20.655083, “Importin α/β1 dependent nuclear import of Black Sea Bass Polyomavirus Large Tumor Antigen is mediated by a classical NLS located downstream of the SF3 helicase domain” (bioRxiv, 2025).
Where no end group is shown, it is not given here. The star is where a group is joined. FITC = O=C1OC2(c3ccc(O)cc3Oc3cc(O)ccc32)c2ccc(NC(=S)*)cc21; Ahx = NCCCCCC(=O)O

Assays:
Assay in all cases: native gel or EMSA; 1.5% agarose gel in TB buffer (0.45 mM tris, 0.45 mM boric acid, pH ~8.5), 2 hours at 75 V; recombinant IMPs 20 μM, FITC peptides 10 μM; peptides seen with a UV filter, proteins by Coomassie staining
Conditions in all cases: both partners purified
human importin β2 = target: T1, human importin β2 (human, UniProt Q92973 1-898)
T1 construct: human importin β2; In pET30a with His tag and TEV site; no cleavage step is described in the purification; also called hIMPβ2; IMPβ2; source: E. coli BL21(DE3)pLysS, purified (HisTrap, Superdex 200 SEC)
T1 sequence (looked up): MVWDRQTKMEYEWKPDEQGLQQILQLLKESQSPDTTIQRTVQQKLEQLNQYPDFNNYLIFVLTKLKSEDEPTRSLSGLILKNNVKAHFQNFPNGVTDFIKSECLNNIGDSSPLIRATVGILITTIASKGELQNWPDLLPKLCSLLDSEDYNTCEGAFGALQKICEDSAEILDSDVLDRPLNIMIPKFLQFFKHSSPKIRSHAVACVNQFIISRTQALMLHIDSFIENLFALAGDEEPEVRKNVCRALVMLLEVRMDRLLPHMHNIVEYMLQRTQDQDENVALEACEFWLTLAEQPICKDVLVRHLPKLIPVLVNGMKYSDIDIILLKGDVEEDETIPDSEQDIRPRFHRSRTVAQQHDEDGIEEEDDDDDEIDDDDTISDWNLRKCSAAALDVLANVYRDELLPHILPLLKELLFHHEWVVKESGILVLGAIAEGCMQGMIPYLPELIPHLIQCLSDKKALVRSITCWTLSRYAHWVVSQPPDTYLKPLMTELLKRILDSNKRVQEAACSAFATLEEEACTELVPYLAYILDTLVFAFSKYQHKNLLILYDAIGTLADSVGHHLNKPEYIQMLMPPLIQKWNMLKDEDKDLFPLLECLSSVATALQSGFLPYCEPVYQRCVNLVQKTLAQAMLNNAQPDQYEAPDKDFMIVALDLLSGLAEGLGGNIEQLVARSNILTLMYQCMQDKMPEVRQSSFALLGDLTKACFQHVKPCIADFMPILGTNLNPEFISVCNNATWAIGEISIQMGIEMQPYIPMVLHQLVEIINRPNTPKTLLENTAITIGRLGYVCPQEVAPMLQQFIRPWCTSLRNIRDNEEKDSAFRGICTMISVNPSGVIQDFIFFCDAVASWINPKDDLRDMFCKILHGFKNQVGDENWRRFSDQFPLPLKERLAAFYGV

human importin β3 = target: T2, human importin β3 (human, UniProt O00410 1-1097)
T2 construct: human importin β3; In pET30a with His tag and TEV site; no cleavage step is described in the purification; also called hIMPβ3; IMPβ3; source: E. coli BL21(DE3)pLysS, purified (HisTrap, Superdex 200 SEC)
T2 sequence (looked up): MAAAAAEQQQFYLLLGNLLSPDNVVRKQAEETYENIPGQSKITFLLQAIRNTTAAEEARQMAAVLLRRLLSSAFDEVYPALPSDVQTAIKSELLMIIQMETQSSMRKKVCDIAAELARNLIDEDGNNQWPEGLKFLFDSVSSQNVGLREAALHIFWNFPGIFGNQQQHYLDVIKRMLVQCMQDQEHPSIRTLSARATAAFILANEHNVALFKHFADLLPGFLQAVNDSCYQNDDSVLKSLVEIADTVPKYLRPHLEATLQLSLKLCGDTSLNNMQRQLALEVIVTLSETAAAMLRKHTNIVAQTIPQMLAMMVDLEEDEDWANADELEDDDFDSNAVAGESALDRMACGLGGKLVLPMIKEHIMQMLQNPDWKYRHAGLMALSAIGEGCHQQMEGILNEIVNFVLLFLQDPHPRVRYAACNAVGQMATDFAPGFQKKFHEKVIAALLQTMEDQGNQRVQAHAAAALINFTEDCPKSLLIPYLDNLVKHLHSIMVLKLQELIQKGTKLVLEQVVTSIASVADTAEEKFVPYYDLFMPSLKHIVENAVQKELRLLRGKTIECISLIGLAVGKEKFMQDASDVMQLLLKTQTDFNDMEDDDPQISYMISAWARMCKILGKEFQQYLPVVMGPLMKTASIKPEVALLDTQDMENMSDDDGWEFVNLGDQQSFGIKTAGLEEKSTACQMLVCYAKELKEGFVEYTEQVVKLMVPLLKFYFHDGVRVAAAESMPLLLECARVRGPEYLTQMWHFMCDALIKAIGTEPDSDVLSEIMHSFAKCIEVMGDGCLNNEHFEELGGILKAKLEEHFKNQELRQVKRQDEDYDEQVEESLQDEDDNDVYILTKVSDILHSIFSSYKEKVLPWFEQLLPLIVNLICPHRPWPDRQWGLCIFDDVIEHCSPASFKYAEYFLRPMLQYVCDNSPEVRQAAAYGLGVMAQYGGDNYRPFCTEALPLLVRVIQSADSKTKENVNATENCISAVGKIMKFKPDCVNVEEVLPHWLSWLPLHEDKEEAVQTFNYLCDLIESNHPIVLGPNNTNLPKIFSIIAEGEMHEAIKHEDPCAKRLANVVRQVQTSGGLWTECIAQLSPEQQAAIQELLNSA

human importin β1 = target: T3, human importin β1 (human, UniProt Q14974 1-876)
T3 construct: human importin β1; In pMCSG21 with His tag and TEV site; no cleavage step is described in the purification; also called hIMPβ1; IMPβ1; source: E. coli BL21(DE3)pLysS, purified (HisTrap, Superdex 200 SEC)
T3 sequence (Q14974 whole entry): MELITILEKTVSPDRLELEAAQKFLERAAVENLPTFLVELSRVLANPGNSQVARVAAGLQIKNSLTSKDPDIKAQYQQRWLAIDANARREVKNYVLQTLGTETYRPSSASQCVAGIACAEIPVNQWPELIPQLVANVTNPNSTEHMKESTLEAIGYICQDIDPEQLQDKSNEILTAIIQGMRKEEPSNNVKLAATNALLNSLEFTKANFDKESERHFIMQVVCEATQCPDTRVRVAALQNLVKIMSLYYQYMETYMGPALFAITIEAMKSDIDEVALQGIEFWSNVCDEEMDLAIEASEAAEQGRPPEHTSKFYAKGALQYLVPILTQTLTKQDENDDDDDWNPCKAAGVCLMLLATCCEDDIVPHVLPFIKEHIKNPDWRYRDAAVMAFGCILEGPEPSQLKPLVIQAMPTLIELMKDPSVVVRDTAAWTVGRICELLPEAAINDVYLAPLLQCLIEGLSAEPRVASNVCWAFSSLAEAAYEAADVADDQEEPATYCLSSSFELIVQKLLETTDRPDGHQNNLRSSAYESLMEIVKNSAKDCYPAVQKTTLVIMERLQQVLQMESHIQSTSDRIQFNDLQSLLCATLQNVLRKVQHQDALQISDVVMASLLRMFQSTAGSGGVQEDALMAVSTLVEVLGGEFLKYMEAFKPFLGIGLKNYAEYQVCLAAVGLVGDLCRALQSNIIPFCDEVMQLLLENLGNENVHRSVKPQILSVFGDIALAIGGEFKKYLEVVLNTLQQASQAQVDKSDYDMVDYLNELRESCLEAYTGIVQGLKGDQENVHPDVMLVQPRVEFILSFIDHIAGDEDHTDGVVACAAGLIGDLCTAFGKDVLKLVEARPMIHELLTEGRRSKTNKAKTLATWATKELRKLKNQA

Measured: binding result

B1: BSB PyV-LTA;NLS peptide (Black Sea Bass polyomavirus large tumor antigen residues 660-683) (peptide)
peptide: {FITC-Ahx}-IAEYKRRHNIGSDGLPNKRRRCLF
notes: also called BSB PyV-LTA 660-683; BSBPyV LTA FITC-NLS peptide
binds: human importin β2 | human importin β3 | human importin β1
